Test [1] concerns the target T1, human FAPα (Fibroblast activation protein alpha), cell surface expressed (human, UniProt Q12884 1-760).
T1 construct: Endogenous on human lung fibroblasts and CAFs
T1 sequence: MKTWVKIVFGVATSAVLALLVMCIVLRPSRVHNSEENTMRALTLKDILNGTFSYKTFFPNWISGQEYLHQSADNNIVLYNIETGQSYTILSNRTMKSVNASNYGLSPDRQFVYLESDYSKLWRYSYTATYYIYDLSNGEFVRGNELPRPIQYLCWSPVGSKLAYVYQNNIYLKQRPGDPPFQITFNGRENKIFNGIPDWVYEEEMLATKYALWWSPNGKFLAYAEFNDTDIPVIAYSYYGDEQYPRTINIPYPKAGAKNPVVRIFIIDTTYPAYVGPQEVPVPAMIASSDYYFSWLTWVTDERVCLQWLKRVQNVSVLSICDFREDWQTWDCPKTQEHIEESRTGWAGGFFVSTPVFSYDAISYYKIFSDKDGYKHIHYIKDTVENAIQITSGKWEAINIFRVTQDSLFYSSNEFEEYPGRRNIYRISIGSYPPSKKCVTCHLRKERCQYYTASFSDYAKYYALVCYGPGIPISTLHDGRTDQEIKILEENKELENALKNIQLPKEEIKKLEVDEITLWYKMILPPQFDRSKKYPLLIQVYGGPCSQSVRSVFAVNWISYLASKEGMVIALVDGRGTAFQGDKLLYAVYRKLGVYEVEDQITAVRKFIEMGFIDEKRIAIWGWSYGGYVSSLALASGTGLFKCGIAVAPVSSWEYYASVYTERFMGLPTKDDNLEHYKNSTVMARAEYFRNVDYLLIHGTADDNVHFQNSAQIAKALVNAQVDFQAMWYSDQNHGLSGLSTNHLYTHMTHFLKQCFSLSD
Nature of the test: flow cytometry, Expi293F cells expressing human FAPα, n = 3. The protocol: (§1) Binding of BisG1-FAPα-FERL/DR4-FERR, BisG1-FAPα-FEAL/b12-FEAR and IgG1-FAPα-FERL to FAPα of species commonly used for nonclinical toxicology studies was assessed by flow cytometry using Expi293F cells transiently expressing FAPα from different animal species. IgG1-b12 was included as negative control.
(§2) Expi293F cells expressing recombinant FAPα from various species (human, cynomolgus monkey, dog, pig, rat or mouse) were seeded (20,000 cells/well) in 96-Well round bottom plates (Greiner Bio-one, Cat #650101). Antibody dilutions were prepared using FACS buffer, consisting of PBS (Capricorn Scientific, Cat #PBS-10XA, diluted to 1×PBS in distilled water)+1% BSA (Roche, Cat #10735086001)+0.02% Sodium Azide (Bio-World, Cat #41920044-3). Plates were centrifuged, supernatant was removed, and cells were resuspended in 100 μL of antibody dilutions (concentration range 30-0.00017 μg/mL with three-fold serial dilutions using FACS buffer) of BisG1-FAPα-FERL/DR4-FERR, BisG1-FAPα-FEAL/b12-FEAR, IgG1-FAPα-FERL and IgG1-b12 and incubated for 30 min at 4° C. […] After 30 min incubation at 4° C., cells were washed with FACS buffer and resuspended in FACS buffer supplemented with TO-PRO-3 Iodide viability marker (Invitrogen, Cat #T3605, diluted 1:4,000). Antibody binding to viable cells (gMFI of PE on TO-PRO-3 negative cells) was analyzed by flow cytometry on a FACS Celesta and FACS_Diva software (first two experiments) or iQue® 3 and FlowJo software (last experiment). gMFI was determined and visualized using GraphPad Prism. Binding curves were analyzed using nonlinear regression analysis. The concentration (pg/mL) at which 50% of the maximal effect was observed (EC₅₀) was derived from the fitted curves.
For orientation: A flow cytometer gives signals particle by particle.

Test [2] deals with T2, cynomolgus monkey FAPα on Expi293F cells (cynomolgus monkey (Macaca fascicularis), UniProt Q12884 1-760 (human entry)).
T2 sequence: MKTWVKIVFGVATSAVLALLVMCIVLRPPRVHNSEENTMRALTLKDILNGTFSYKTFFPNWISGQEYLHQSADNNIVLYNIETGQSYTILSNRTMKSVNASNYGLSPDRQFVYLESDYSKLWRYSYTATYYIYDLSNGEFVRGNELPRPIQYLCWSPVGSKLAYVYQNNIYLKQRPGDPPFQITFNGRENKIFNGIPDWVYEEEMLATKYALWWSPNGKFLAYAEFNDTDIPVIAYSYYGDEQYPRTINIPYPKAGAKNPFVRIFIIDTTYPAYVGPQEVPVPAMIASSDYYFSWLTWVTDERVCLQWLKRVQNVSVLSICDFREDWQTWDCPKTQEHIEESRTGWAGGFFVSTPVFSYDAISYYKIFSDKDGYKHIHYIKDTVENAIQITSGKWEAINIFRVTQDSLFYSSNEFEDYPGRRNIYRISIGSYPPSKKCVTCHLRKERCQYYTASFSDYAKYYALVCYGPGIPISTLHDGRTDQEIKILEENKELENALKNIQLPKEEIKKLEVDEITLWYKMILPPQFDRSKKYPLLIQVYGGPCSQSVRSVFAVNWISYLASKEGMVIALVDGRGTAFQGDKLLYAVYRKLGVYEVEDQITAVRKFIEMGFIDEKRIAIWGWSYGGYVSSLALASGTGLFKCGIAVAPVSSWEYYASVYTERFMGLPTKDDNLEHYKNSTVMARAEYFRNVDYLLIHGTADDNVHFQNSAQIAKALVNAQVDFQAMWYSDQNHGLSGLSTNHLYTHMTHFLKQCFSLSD
Nature of the test: flow cytometry, Expi293F cells expressing cynomolgus monkey FAPα, n = 3. The procedure:
as §1, §2

The target in test [3] is T3, human DR4 (Death Receptor 4), cell surface expressed on human tumor cell lines (human, UniProt O00220 24-468).
T3 construct: also called TNFRSF10A; TRAIL-R1
T3 sequence: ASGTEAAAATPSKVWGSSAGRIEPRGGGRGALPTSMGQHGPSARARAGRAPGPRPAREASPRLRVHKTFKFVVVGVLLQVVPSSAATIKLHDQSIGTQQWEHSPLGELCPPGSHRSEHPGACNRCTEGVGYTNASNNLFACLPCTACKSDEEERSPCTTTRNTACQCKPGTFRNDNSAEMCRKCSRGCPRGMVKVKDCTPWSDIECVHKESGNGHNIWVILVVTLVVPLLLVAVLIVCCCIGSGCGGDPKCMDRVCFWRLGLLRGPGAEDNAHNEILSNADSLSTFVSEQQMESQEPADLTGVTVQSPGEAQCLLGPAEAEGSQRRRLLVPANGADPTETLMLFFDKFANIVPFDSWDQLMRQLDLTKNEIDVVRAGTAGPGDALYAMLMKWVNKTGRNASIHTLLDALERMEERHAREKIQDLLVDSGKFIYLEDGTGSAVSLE
In words: flow cytometry, A549 cells, n = 2.

For test [4], the target named is T3, human DR4 (Death Receptor 4), cell …. In words: flow cytometry, HCT-15 cells, n = 3.

B1: BisG1-FAPα-FEAL/b12-FEAR (bispecific antibody, human IgG1, kappa)
heavy 1: EVQLLESGGGLVQPGGSPRLSCEASGFTFSSYALSWVRQAPGKGLEWVSAISGSGGGRYYADSVKGRFTISRDNSKNTLFLQMNSLRAEDTAVYYCAKEGYSSSGTYWDHWGQGTLVTVSSASTKGPSVFPLAPSSKSTSGGTAALGCLVKDYFPEPVTVSWNSGALTSGVHTFPAVLQSSGLYSLSSVVTVPSSSLGTQTYICNVNHKPSNTKVDKRVEPKSCDKTHTCPPCPAPEFEGGPSVFLFPPKPKDTLMISRTPEVTCVVVAVSHEDPEVKFNWYVDGVEVHNAKTKPREEQYNSTYRVVSVLTVLHQDWLNGKEYKCKVSNKALPAPIEKTISKAKGQPREPQVYTLPPSREEMTKNQVSLTCLVKGFYPSDIAVEWESNGQPENNYKTTPPVLDSDGSFLLYSKLTVDKSRWQQGNVFSCSVMHEALHNHYTQKSLSLSPG
light 1: AIQMTQSPSSVSASVGDRVTITCRASQGVSSWLAWYQQKPGRAPKLLIYVASTLQSGVPSRFSGSGSGTDFTLTINSLQPEDFATYYCQQANSFPPTFGQGTRLEMKRTVAAPSVFIFPPSDEQLKSGTASVVCLLNNFYPREAKVQWKVDNALQSGNSQESVTEQDSKDSTYSLSSTLTLSKADYEKHKVYACEVTHQGLSSPVTKSFNRGEC
heavy 2: QVQLVQSGAEVKKPGASVKVSCQASGYRFSNFVIHWVRQAPGQRFEWMGWINPYNGNKEFSAKFQDRVTFTADTSANTAYMELRSLRSADTAVYYCARVGPYSWDDSPQDNYYMDVWGKGTTVIVSSASTKGPSVFPLAPSSKSTSGGTAALGCLVKDYFPEPVTVSWNSGALTSGVHTFPAVLQSSGLYSLSSVVTVPSSSLGTQTYICNVNHKPSNTKVDKRVEPKSCDKTHTCPPCPAPEFEGGPSVFLFPPKPKDTLMISRTPEVTCVVVAVSHEDPEVKFNWYVDGVEVHNAKTKPREEQYNSTYRVVSVLTVLHQDWLNGKEYKCKVSNKALPAPIEKTISKAKGQPREPQVYTLPPSREEMTKNQVSLTCLVKGFYPSDIAVEWESNGQPENNYKTTPPVLDSDGSFFLYSRLTVDKSRWQQGNVFSCSVMHEALHNHYTQKSLSLSPG
light 2: EIVLTQSPGTLSLSPGERATFSCRSSHSIRSRRVAWYQHKPGQAPRLVIHGVSNRASGISDRFSGSGSGTDFTLTITRVEPEDFALYYCQVYGASSYTFGQGTKLERKRTVAAPSVFIFPPSDEQLKSGTASVVCLLNNFYPREAKVQWKVDNALQSGNSQESVTEQDSKDSTYSLSSTLTLSKADYEKHKVYACEVTHQGLSSPVTKSFNRGEC
notes: Fab-arm exchange of IgG1-FAPα-FEAL and IgG1-b12-FEAR
On to B1, for which the results for the EC50 in test [1] and in test [2] were 0.61 µg/mL and 0.35 µg/mL, respectively.

B2: IgG1-FAPα-FERL (antibody)
heavy: EVQLLESGGGLVQPGGSPRLSCEASGFTFSSYALSWVRQAPGKGLEWVSAISGSGGGRYYADSVKGRFTISRDNSKNTLFLQMNSLRAEDTAVYYCAKEGYSSSGTYWDHWGQGTLVTVSSASTKGPSVFPLAPSSKSTSGGTAALGCLVKDYFPEPVTVSWNSGALTSGVHTFPAVLQSSGLYSLSSVVTVPSSSLGTQTYICNVNHKPSNTKVDKRVEPKSCDKTHTCPPCPAPEFERGPSVFLFPPKPKDTLMISRTPEVTCVVVDVSHEDPEVKFNWYVDGVEVHNAKTKPREEQYNSTYRVVSVLTVLHQDWLNGKEYKCKVSNKALPAPIEKTISKAKGQPREPQVYTLPPSREEMTKNQVSLTCLVKGFYPSDIAVEWESNGQPENNYKTTPPVLDSDGSFLLYSKLTVDKSRWQQGNVFSCSVMHEALHNHYTQKSLSLSPG
light: AIQMTQSPSSVSASVGDRVTITCRASQGVSSWLAWYQQKPGRAPKLLIYVASTLQSGVPSRFSGSGSGTDFTLTINSLQPEDFATYYCQQANSFPPTFGQGTRLEMKRTVAAPSVFIFPPSDEQLKSGTASVVCLLNNFYPREAKVQWKVDNALQSGNSQESVTEQDSKDSTYSLSSTLTLSKADYEKHKVYACEVTHQGLSSPVTKSFNRGEC
notes: Bivalent monoclonal IgG1 kappa
Consider B2, for which the values for the EC50 in test [1] and in test [2] were 0.32 µg/mL and 0.16 µg/mL, respectively.

B3: IgG1-DR4-FERR (antibody, V domains shown)
VH: QVQLQESGPGLVKPSGTLSLTCAVSGGSISSYSWWSWIRQPPGKGLEWIGELYHSGSTNYNPSLKSRVTISVDKSKNQFSLKLRSVTAADTAVYYCVRGVATIDYWGQGTLVTVSS
VL: QSALTQPPSASGSPGQSVTISCTGTSSDVGGYNFVSWYQQDPGKAPKLLIYEVTKRPSGVPDRFSGSKSGNTASLTVSGLQAEDEADYYCSSYAGSNNVMFGGGTKLTVLG
notes: Bivalent monoclonal IgG1 lambda
As to B3, the concentration for a half-maximal effect (EC50) is 0.26 µg/mL in test [3] and 0.15 µg/mL in test [4].

As usually defined, the EC50 is the concentration that produces a half-maximal response.

(Values after patent US20250002610A1 (Genmab, published 2025).)
